From publication doi:10.1101/2024.05.23.595586 (bioRxiv, 2024)

Target: T1, MBP-TREM2 N79Q (MBP fused to TREM2 19-134) (human, UniProt Q9NZC2 19-134, N79Q)
T1 sequence (looked up): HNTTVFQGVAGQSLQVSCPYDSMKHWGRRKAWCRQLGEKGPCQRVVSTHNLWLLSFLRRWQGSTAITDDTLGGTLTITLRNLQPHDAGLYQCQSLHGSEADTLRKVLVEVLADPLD
Experiment: crystal structure

binding result: binds
Binder: DAEFRHDS [Amyloid beta peptide (1-8)]
